According to patent US20090028881A1:

How the values were obtained:
[1] = target: CCR5 mutant E172A (human) (UniProt P51681); assay: alanine scanning epitope mapping; wild-type CCR5 defined as 100%
[2] = target: CCR5 mutant K171A (human) (UniProt P51681); assay: as above

- epitope binding (% of wild-type CCR5) [1]: 20%
- epitope binding (% of wild-type CCR5) [2]: 20%
B1: <CCR5>Pz03.1C5 (antibody, V domains shown)
VH: QVQLKQSGPGLVRPSQSLSITCTVSGFPLGIFGVHWVRQSPGKGLEWLGVIWKGGNTDYNAAFMSRLRITKDNSKSQVFFRMNSLQTDDTAIYYCAKVNLADAMDYWGQGTSVIVSS
VL: DIQMTQSPASLSASVGETVTITCRASGNIHGYLAWFQQKQGKSPQLLVYNTKTLAEGVPSRFSGSGSGTQFSLKINSLQPEDFGNYYCQHHYDLPRTFGGGTKLEIKR
